Measurements taken from the supplement of paper PMC10126150.
± gives the standard deviation of the averaged measurements.

Tested on: ATP
Experiment: switch fluorescence ratio, 500 uM ATP over buffer (Cy3 cluster intensity, sum of 5 cycles each) (fold (ratio)); higher = stronger signal-on switching upon ATP binding; sequences stand for … in TCGTCGGCAGCGTCAGATGTGTATAAGAGACAGTTTTTTTTTTTTTTTTTTTTTTTTT…TC
Settings: aptamer strand: ATP DNA aptamer (quencher-CACCTGGGGGAGTATTGCGGAGGAAGG + anchor), 100 nM annealed; ATP concentration: 500 uM
How it was run: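 After annealing to 100 nM quencher-labelled ATP aptamer, Cy3-labelled switching-strand clusters on a modified Illumina MiSeq flow-cell were imaged in selection buffer. A second image followed after 15 min with 500 uM ATP at 22 °C, and five such buffer/ATP cycles were done, each separated by NaOH stripping and re-annealing. The fluorescence ratio, averaged per switch-domain sequence, is summed target-cycle over summed buffer-cycle Cy3 intensity per cluster, with clusters outside 100-1000 RFU excluded.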
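Note: ATP exposure 15 min at 22 °C before imaging.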

Row | Sequence | switch fluorescence ratio
1 | AATTGGACTA | 0.976 ± 0.063
2 | AATGAGTGTG | 0.9805 ± 0.0029
3 | CAGTGCCAGC | 0.999 ± 0.035
4 | TTATTTAAAA | 1 ± 0.02
5 | GGCACGCGAG | 1.03 ± 0.05
6 | TTGGGGTCTG | 1.02 ± 0.023
7 | TTTTAGTGGT | 0.992 ± 0.014
8 | GTGGGATATT | 0.9809 ± 0.0056
9 | CGTTGCTATG | 1.01 ± 0.028
10 | ATTAGGAATG | 1.01 ± 0.027
11 | AGACAGGGAC | 1.04 ± 0.016
12 | TTTCTTGTCT | 1.01 ± 0.035
13 | AGAATTGAGG | 0.979 ± 0.016
14 | AAGTTACTAG | 1.07 ± 0.014
15 | TGCGAGTGCT | 0.976 ± 0.037
16 | ACAGGAGAAA | 1.01 ± 0.019
17 | TATAAGGCGC | 0.949 ± 0.032
18 | ATGTAGGTTG | 0.988 ± 0.029
19 | CAGCAGGCGG | 1.01 ± 0.024
20 | TTATATTGCG | 0.9885 ± 0.0014
21 | TCGAGGGAAG | 0.998 ± 0.023
22 | GATGGACATA | 1.031 ± 0.0015
23 | TCTCTTAAGT | 0.989 ± 0.012

Row | Sequence | switch fluorescence ratio
24 | TGAGAGTAGG | 0.9839 ± 0.0072
25 | AATTTTTAGA | 0.987 ± 0.034
26 | CTAGGTAACG | 1.02 ± 0.033
27 | AAAGCCGGTG | 1.022 ± 0.00024
28 | CAGTTTTTTC | 1.005 ± 0.0054
29 | TGTGATGAGT | 0.992 ± 0.024
30 | GCGGAAGGG | 0.996 ± 0.0087
31 | ATAAGGGGGC | 0.989 ± 0.041
32 | ACTCGGGCAG | 0.9937 ± 0.002
33 | CGAGGGTAGG | 1.04 ± 0.025
34 | TGGCACAGGG | 1.06 ± 0.016
35 | TAAGTGGGGC | 0.957 ± 0.085
36 | GATCGTTGGT | 0.991 ± 0.021
37 | AAAGTATTTC | 1.02 ± 0.015
38 | TTATTTCATT | 0.9966 ± 0.0062
39 | TCTGGGGGAG | 0.977 ± 0.029
40 | GAGGTTTCGT | 0.988 ± 0.02
41 | GCCCGTCCTG | 1.04 ± 0.015
42 | GCTATAAAAC | 1.03 ± 0.077
43 | GCAAGGGTTG | 1.01 ± 0.022
44 | ACTATTTTTT | 1 ± 0.029
45 | GGGGAATGTA | 0.971 ± 0.022
46 | AGGATAACCC | 1.018 ± 0.0064

Row | Sequence | switch fluorescence ratio
47 | AATGGTATGT | 1.032 ± 0.0088
48 | GCGTGACGGC | 0.981 ± 0.033
49 | GTATTTCATA | 1.01 ± 0.0031
50 | CGGTGAATAC | 2.67 ± 0.064
51 | ATGGTCATGT | 0.9943 ± 0.0072
52 | GTACGAGGGG | 0.992 ± 0.016
53 | GCGTGGGGGG | 1 ± 0.016
54 | TCAGGTTTGT | 1.28 ± 0.34
55 | TTTGTATGCA | 1.04 ± 0.057
56 | CCGTTGAAAT | 1.22 ± 0.011
57 | TGAGTTCGCA | 1.69 ± 0.13
58 | GCCAAAGCGG | 0.997 ± 0.014
59 | TCGGTCAGTT | 0.971 ± 0.012
60 | CACAAACCAG | 1.34 ± 0.37
61 | TTCCAAGGGT | 1.76 ± 1.5
62 | TAAAGGGTTT | 0.982 ± 0.021
63 | GAATTATCAG | 0.968 ± 0.045
64 | AAGAGGGATT | 0.983 ± 0.03
65 | AGTTCGGGCA | 0.998 ± 0.021
66 | GGTTTTGTTC | 1.09 ± 0.11
67 | CTGGGTTTCG | 0.974 ± 0.042
68 | TTGGTTGGCT | 1.01 ± 0.018
69 | AAAAATTAAT | 0.979 ± 0.023

Row | Sequence | switch fluorescence ratio
70 | AAAGTCAGTA | 0.9818 ± 0.007
71 | AGTTCTGGTT | 0.965 ± 0.011
72 | TGAAAGTGCT | 0.973 ± 0.02
73 | TTTCCTCTCG | 1.54 ± 0.76
74 | CAATTAGCAT | 1.03 ± 0.017
75 | ACTGATGATC | 1.016 ± 0.0039
76 | TGTTTGTTT | 1.03 ± 0.025
77 | ATCAAGGGGA | 0.972 ± 0.028
78 | TGGAGGGCTC | 1.01 ± 0.025
79 | CGCACGGGGG | 1.01 ± 0.031
80 | TTTGATTCGG | 0.983 ± 0.017
81 | ATTGGGGGAT | 1.02 ± 0.078
82 | CAGAATCAAC | 1.05 ± 0.014
83 | TTTAGAAAAC | 0.984 ± 0.037
84 | CATGCCGCAT | 1.133 ± 0.0092
85 | TTTAGAAGGG | 0.979 ± 0.051
86 | ATAATGGCTT | 0.988 ± 0.025
87 | TTGCTTTTTT | 0.992 ± 0.013
88 | GTGGGATAAT | 1.02 ± 0.021
89 | GGTCCCGGGG | 1.05 ± 0.026
90 | ATGGGTCTT | 1.01 ± 0.023
91 | TCGTGTGGTT | 0.978 ± 0.035
92 | CGGTTTCCTC | 1.11 ± 0.074

Row | Sequence | switch fluorescence ratio
93 | TGGGGAATAG | 1.04 ± 0.057
94 | GGGCATGGAA | 0.969 ± 0.018
95 | GGGGGGGATT | 1.01 ± 0.025
96 | AATGGGGCAA | 1.058 ± 0.0077
97 | ACGGGGGCGT | 1.05 ± 0.068
98 | CGAAGTGGCC | 1.02 ± 0.016
99 | TATGAAAGTA | 0.999 ± 0.033
100 | ATTGAAAAGG | 0.96 ± 0.028
101 | CAAATTTGGG | 1.02 ± 0.014
102 | CTCATGTAAG | 1.009 ± 0.0014
103 | AAGTTGGGAA | 1.02 ± 0.042
104 | AGGCTATCCC | 0.992 ± 0.033
105 | GGCCTGTTTT | 1.09 ± 0.21
106 | TTAGCTGTTA | 1 ± 0.016
107 | GGCGGGGGGT | 1.01 ± 0.024
108 | CCAGGCTGTT | 1.07 ± 0.023
109 | GCCCGGAGAC | 1.71 ± 0.025
110 | GCAAATGAGT | 1.003 ± 0.0082
111 | GGGATGACCT | 1.1 ± 0.044
112 | ATTTTAAGGG | 1.003 ± 0.0042
113 | CAAATAAACC | 1.03 ± 0.018
114 | CGTGTGGCGT | 1.05 ± 0.016
115 | GGGGACTTGC | 0.9913 ± 0.0045

Row | Sequence | switch fluorescence ratio
116 | GAGTGGCTCT | 0.968 ± 0.026
117 | TTTGGGGAGT | 1 ± 0.088
118 | TTGAGTACGT | 0.992 ± 0.045
119 | GTCTGGGGTG | 1.04 ± 0.021
120 | GAGGGGTGGA | 0.996 ± 0.015
121 | GTTACTGGCC | 1.01 ± 0.0068
122 | CGAGAATTGT | 0.9301 ± 0.0053
123 | AGATGGGTGT | 1.04 ± 0.041
124 | AGTCATTTTA | 0.999 ± 0.028
125 | TTCCTTGTTA | 0.9973 ± 0.0052
126 | TGCTTTTTGT | 1.02 ± 0.046
127 | GTGAGTGTAT | 0.9682 ± 0.0092
128 | CCTGGCGATG | 1.38 ± 0.053
129 | GCAACCCTAA | 1.02 ± 0.055
130 | GGGGGGCAAT | 1.2 ± 0.099
131 | AATGATGTAC | 1.05 ± 0.01
132 | GTGGGGAAAG | 0.99 ± 0.034
133 | TCATATTAAG | 0.9911 ± 0.0028
134 | GTATTGCCAG | 0.995 ± 0.029
135 | ATCTAGTAGT | 1.01 ± 0.013
136 | TGTTATGTTT | 0.99 ± 0.032
137 | TGCGGGCGTT | 0.993 ± 0.013
138 | ATCACGCGTA | 1.02 ± 0.037

Row | Sequence | switch fluorescence ratio
139 | AAGAGACCTT | 1.28 ± 0.026
140 | AGTTGGCGGG | 1.018 ± 0.005
141 | ATTCGGCCTT | 1.01 ± 0.043
142 | TATTAGTTGC | 1 ± 0.034
143 | CTCTTATAGT | 0.969 ± 0.019
144 | GGGGCGAGTC | 1.01 ± 0.1
145 | ATACGTTGAA | 1 ± 0.045
146 | TTAAGTTTTG | 1.016 ± 0.0078
147 | TGTGCTCGGA | 1.04 ± 0.1
148 | AGGGTCATTC | 0.975 ± 0.017
149 | TCATTAAGGC | 1.01 ± 0.015
150 | GCTATGAAAA | 0.986 ± 0.028
151 | TGATTTTGTT | 1.01 ± 0.018
152 | CAGTCGGTCA | 1.01 ± 0.032
153 | TAGTGTGGGC | 0.999 ± 0.017
154 | TACGGGGACG | 1.02 ± 0.026
155 | GACGGGCCGG | 1.01 ± 0.03
156 | CGCTGACATT | 1.019 ± 0.0034
157 | AGTGCAGGTG | 2.438 ± 0.015
